# Reference: article PMC12218935, “Opposing role of phagocytic receptors MERTK and AXL in Progranulin deficient FTD” (Communications Biology, 2025)
# T1: Gas6, recombinant human, His-tagged (human, UniProt Q14393 31-678)
# T1 construct: human GAS6, recombinant, bought from R&D Systems; Limits and the end of the tag are in the vendor's data sheet; also called H6-tagged-GAS6; source: bought: R&D Systems (885-GSB-050)
# T1 sequence (looked up): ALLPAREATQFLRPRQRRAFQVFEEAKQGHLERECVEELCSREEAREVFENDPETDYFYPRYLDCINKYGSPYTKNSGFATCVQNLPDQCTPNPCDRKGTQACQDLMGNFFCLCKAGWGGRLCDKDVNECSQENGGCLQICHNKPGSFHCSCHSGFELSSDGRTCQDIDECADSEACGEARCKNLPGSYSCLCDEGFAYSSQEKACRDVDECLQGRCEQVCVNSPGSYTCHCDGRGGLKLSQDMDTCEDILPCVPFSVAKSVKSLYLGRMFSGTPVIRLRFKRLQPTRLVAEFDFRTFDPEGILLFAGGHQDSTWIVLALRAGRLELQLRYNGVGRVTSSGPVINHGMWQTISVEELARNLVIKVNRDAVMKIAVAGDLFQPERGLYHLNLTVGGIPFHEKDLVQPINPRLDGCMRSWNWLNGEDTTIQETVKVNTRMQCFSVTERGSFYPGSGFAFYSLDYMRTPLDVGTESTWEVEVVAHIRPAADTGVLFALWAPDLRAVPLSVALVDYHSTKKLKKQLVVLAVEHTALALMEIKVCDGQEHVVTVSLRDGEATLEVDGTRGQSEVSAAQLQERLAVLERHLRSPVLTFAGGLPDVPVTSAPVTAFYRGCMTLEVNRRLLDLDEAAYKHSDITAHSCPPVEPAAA
# T2: Fc-Mer (MERTK Fc chimera) (human, UniProt Q12866 21-505)
# T2 chain: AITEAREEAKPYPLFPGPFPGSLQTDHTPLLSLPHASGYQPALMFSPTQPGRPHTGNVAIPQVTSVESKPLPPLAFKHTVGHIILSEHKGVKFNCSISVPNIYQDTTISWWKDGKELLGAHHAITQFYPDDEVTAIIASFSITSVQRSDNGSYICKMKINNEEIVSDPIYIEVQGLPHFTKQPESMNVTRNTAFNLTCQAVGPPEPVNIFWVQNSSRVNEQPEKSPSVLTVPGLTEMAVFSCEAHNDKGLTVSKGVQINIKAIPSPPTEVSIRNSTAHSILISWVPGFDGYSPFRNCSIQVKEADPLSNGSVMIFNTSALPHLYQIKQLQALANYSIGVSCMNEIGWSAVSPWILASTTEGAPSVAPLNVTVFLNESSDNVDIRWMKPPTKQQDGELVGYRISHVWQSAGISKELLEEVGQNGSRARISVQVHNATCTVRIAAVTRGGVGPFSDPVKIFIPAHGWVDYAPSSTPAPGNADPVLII
# Experiments:
# [1] = molecular target: T1, Gas6, recombinant human, His-tagged; test: SPR; Biacore T200, CM5 chip; Protein A amine-coupled (2300 RU), Fc-Mer (150 RU) or Fc-Axl (140 RU) captured; Gas6 or PGRN injected at 20 uL/min for 500 s, 1000 s dissociation; HBS-EP+ with 1.5 mM CaCl2 and 0.1% BSA; 1:1 kinetic model; settings: both partners purified
# [2] = molecular target: T2, Fc-Mer (MERTK Fc chimera); test: SPR
Kd [1] [nM],koff [2] [s⁻¹],Binder
27.7,,"Fc-Mer (MERTK Fc chimera) (Fc fusion, human, UniProt Q12866 21-505, looked up, human MERTK (Mer) part of the bought Fc chimera; Captured on Protein A by its Fc; As far as I recall the vendor's product is the extracellular domain of human Mer fused to human IgG1 Fc at the C-terminus; limits are in the vendor's data sheet; source: bought: R&D Systems (891-MR-100)) AITEAREEAKPYPLFPGPFPGSLQTDHTPLLSLPHASGYQPALMFSPTQPGRPHTGNVAIPQVTSVESKPLPPLAFKHTVGHIILSEHKGVKFNCSISVPNIYQDTTISWWKDGKELLGAHHAITQFYPDDEVTAIIASFSITSVQRSDNGSYICKMKINNEEIVSDPIYIEVQGLPHFTKQPESMNVTRNTAFNLTCQAVGPPEPVNIFWVQNSSRVNEQPEKSPSVLTVPGLTEMAVFSCEAHNDKGLTVSKGVQINIKAIPSPPTEVSIRNSTAHSILISWVPGFDGYSPFRNCSIQVKEADPLSNGSVMIFNTSALPHLYQIKQLQALANYSIGVSCMNEIGWSAVSPWILASTTEGAPSVAPLNVTVFLNESSDNVDIRWMKPPTKQQDGELVGYRISHVWQSAGISKELLEEVGQNGSRARISVQVHNATCTVRIAAVTRGGVGPFSDPVKIFIPAHGWVDYAPSSTPAPGNADPVLII"
,0.000888,"Gas6, recombinant human, His-tagged (ligand) ALLPAREATQFLRPRQRRAFQVFEEAKQGHLERECVEELCSREEAREVFENDPETDYFYPRYLDCINKYGSPYTKNSGFATCVQNLPDQCTPNPCDRKGTQACQDLMGNFFCLCKAGWGGRLCDKDVNECSQENGGCLQICHNKPGSFHCSCHSGFELSSDGRTCQDIDECADSEACGEARCKNLPGSYSCLCDEGFAYSSQEKACRDVDECLQGRCEQVCVNSPGSYTCHCDGRGGLKLSQDMDTCEDILPCVPFSVAKSVKSLYLGRMFSGTPVIRLRFKRLQPTRLVAEFDFRTFDPEGILLFAGGHQDSTWIVLALRAGRLELQLRYNGVGRVTSSGPVINHGMWQTISVEELARNLVIKVNRDAVMKIAVAGDLFQPERGLYHLNLTVGGIPFHEKDLVQPINPRLDGCMRSWNWLNGEDTTIQETVKVNTRMQCFSVTERGSFYPGSGFAFYSLDYMRTPLDVGTESTWEVEVVAHIRPAADTGVLFALWAPDLRAVPLSVALVDYHSTKKLKKQLVVLAVEHTALALMEIKVCDGQEHVVTVSLRDGEATLEVDGTRGQSEVSAAQLQERLAVLERHLRSPVLTFAGGLPDVPVTSAPVTAFYRGCMTLEVNRRLLDLDEAAYKHSDITAHSCPPVEPAAA"
